Laboratory results reported in patent US20190234935A1 (Janssen / Centocor, published 2019).

What was measured:
Test in all cases: Retrogenix cell microarray on HEK293 cells
[1] = molecular target: T1, GFRα2 (Retrogenix library, on HEK293 cells) (human, UniProt O00451 22-444)
T1 construct: whole, on cells
T1 sequence (looked up): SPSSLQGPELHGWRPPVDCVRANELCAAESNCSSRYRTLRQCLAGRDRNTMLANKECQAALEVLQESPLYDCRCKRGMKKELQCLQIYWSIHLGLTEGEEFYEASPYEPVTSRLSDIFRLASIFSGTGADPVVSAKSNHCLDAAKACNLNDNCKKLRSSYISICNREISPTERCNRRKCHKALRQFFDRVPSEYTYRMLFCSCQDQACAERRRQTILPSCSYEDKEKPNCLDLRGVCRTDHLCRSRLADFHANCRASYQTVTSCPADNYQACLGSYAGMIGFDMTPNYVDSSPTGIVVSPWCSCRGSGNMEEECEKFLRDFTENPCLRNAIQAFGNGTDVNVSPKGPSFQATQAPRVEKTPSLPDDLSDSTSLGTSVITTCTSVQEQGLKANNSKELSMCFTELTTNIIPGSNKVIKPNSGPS
Procedure: (§1) In parallel, two studies were performed at Retrogenix Ltd (Whaley Bridge, High Peak, Derbyshire, UK) using Retrogenix' Cell Microarray technology to screen for binding partners for the Fc-GDF15 fusion molecule. Two studies were performed to screen Retrogenix's plasma membrane protein library, first on 3500 proteins and second on an additional 993 proteins, with total number of proteins screened being 4493. A background screen was performed prior to the primary screen to detect the background level of binding of the test ligand Fc-GDF15 at 2, 5, and 20 ug/ml with blank slides coated with live HEK293 cells and detected by using an AlexaFluor647 anti-Fc antibody. In the primary screen, vectors encoding each full-length human plasma membrane protein in the library were arrayed in duplicates on Retrogenix's cell microarray slides (referred to as ‘slide-set’). Three replicate slide-set were used in the primary screen. Control expression vector (pIRES-hEGFR-IRES-ZsGreen1) was spotted in quadruplicate on every slide to ensure that a minimal threshold of transfection efficiency had been achieved or exceeded on every slide. HEK293 cells were used for reverse transfection in live conditions. The test ligand Fc-GDF15 was added at the concentration of 20 ug/ml to each slide set. After the addition of test ligand, cell fixation was performed and the AlexaFluor647 anti-Fc antibody was used for binding detection. Fluorescent images were analyzed using ImageQuant software (GE) and a protein ‘hit’ is defined as a duplicate spot showing a raised signal compared to background levels by visual inspection using the images gridded on the ImageQuant software. Hits identified in the primary screen were tested in a confirmation screen, where all vectors encoding the hits in at least one of the three replicate primary screening slide-sets were arrayed on new slides. Confirmation screening was performed similar to the primary screening, with the addition of control samples for binding Fc. Binding of cells overexpressing CD86 to human CTLA4 fused to human Fc, served as a positive control, and binding to Fc alone served as a negative control.

[2] = molecular target: T2, GFRα4 (Retrogenix library, on HEK293 cells) (human, UniProt Q9GZZ7 21-278)
T2 construct: whole, on cells
T2 sequence (looked up): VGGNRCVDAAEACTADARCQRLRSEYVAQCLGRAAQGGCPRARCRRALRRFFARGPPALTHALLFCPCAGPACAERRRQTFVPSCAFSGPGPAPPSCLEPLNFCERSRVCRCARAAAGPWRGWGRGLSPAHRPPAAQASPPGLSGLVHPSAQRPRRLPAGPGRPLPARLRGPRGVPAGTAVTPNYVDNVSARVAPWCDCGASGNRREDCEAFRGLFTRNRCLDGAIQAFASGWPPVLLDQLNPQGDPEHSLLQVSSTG
Procedure: as §1

[3] = molecular target: T3, GFRα3 (Retrogenix library, on HEK293 cells) (human, UniProt O60609 32-374)
T3 construct: whole, on cells
T3 sequence (looked up): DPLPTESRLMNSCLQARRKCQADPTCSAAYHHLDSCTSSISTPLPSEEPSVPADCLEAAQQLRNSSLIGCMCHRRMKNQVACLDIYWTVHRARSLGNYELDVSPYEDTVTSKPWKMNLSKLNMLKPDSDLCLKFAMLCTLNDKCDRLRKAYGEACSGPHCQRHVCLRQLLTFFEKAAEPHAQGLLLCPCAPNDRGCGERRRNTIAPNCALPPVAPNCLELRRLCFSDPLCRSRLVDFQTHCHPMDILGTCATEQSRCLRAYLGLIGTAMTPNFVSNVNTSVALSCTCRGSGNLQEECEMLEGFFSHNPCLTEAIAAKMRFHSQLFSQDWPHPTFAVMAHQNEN
Procedure: as §1

[4] = molecular target: T4, GFRα1 (Retrogenix library, on HEK293 cells) (human, UniProt P56159 25-429)
T4 construct: whole, on cells
T4 sequence (looked up): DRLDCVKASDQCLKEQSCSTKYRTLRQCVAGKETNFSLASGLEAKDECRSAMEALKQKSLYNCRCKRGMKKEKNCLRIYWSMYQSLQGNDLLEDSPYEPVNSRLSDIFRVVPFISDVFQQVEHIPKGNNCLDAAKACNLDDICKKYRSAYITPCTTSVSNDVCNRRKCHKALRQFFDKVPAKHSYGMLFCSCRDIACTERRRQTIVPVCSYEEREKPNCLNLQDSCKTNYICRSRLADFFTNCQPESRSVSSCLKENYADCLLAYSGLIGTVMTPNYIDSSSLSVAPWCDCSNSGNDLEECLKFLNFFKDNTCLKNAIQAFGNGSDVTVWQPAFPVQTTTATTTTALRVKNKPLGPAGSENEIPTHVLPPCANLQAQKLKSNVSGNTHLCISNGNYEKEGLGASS
Procedure: as §1

binding result [1]: no binding (tested: 20 ug/ml)
binding result [2]: no binding (tested: 20 ug/ml)
binding result [3]: no binding (tested: 20 ug/ml)
binding result [4]: no binding (tested: 20 ug/ml)
B1: heterodimeric Fc-GDF15 fusion molecule (Fc fusion)
chain 1: CPPCPAPEAAGGPSVFLFPPKPKDTLMISRTPEVTCVVVDVSQEDPEVQFNWYVDGVEVHNAKTKPREEQFNSTYRVVSVLTVLHQDWLNGKEYKCKVSNKGLPSSIEKTISKAKGQPREPQVYTLPPSQEEMTKNQVSLSCAVKGFYPSDIAVEWESNGQPENNYKTTPPVLDSDGSFFLVSRLTVDKSRWQEGNVFSCSVMHEALHNHYTQKSLSLSLGKGSGGGARNGDHCPLGPGRCCRLHTVRASLEDLGWADWVLSPREVQVTMCIGACPSQFRAANMHAQIKTSLHRLKPDTVPAPCCVPASYNPMVLIQKTDTGVSLQTYDDLLAKDCHCI
chain 2: CPPCPAPEAAGGPSVFLFPPKPKDTLMISRTPEVTCVVVDVSQEDPEVQFNWYVDGVEVHNAKTKPREEQFNSTYRVVSVLTVLHQDWLNGKEYKCKVSNKGLPSSIEKTISKAKGQPREPQVYTLPPSQEEMTKNQVSLWCLVKGFYPSDIAVEWESNGQPENNYKTTPPVLDSDGSFFLYSRLTVDKSRWQEGNVFSCSVMHEALHNHYTQKSLSLSLGK
notes: also called Fc-GDF15 ligand
